Here are results for 41 sequences from the nanobody polyreactivity screen of Harvey et al. (2022).

This series can be described thus: yeast display, Sf9 membrane polyspecificity reagent, FACS + sequencing; frameworks hold sequencing errors. In short, it runs like this: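 Nanobodies from a synthetic yeast display library (Saccharomyces cerevisiae BJ5465), induced 36–48 hours with galactose, were stained 1 hour at 4 °C with 10% biotinylated, detergent-solubilized Sf9 membrane reagent, enriched on streptavidin microbeads, then FACS-sorted. Anti-HA (expression) and streptavidin (reagent binding) fluorescence set low and high (top ~1%) gates. Polyreactivity labels come from the gate of origin. Genes were colony-PCR amplified, MiSeq 2 × 250 sequenced and filtered by CDR length.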
As to “QGQLVESGGGLVQAGGILLLSCAASGIIFLYYAMGWYRQAPGKERELVAAITSGGSTYYADSVKGRFTISRDNAKNTVYLQMNSLKPEDTAVYYCNAPYHGREYEWGQGTQVTVSS”, the “polyreactivity (PSR sort gate)” value is given as “high polyreactivity”.
The same measure for “QGQLVESGGGLVQAGGNLRLSCAASGSIFSDYTMGWYRQAPGKERELVAVITLSAGSTYYADSVKGRFTISRDNAKNTVYLQMNSLKPEDTAVYYCAADGWYYFGSGVFEYDYWGHGTQVTVSS”: “low polyreactivity”; for “QGQLVESGGGLVQAGGSLRISCAASGRIYRINAMGWYRQAPGKERELVANITSGGGSTYADSVKGRFTISRDNAKNTVYLQMNSRKPEDTAVYYCAARSRIGRYTYDYWGQGTQVTVSS”: “high polyreactivity”.
For “QGQLVESGGGLVQAGGSLRLSCAASAFIFDDNTMGWYRQAPGKERELGAAISYSAGSTYYADSVKGRFTISRDNAKNTVYLQMNSLKPEDTAVYSCAAQHYWVTSYLSSYDYWGQGTQVTLSS”, the “polyreactivity (PSR sort gate)” value is listed as “low polyreactivity”.
With “QGQLVESGGGLVQAGGSLRLSCAASGFIFRYYTMGWYRQAPGKERELVATITSGGSTYYADSVKGRFTISRDNAKNTVYLQMNSLKPEDTAVYYCNADTLGGKYVYQDRRGFDYWGQGTQVSVSS”, the “polyreactivity (PSR sort gate)” value is recorded as “high polyreactivity”.
Consider “QGQLVESGGGLVQAGGSLRLSCAASGFIFVVYAMGWYRQAPGKERELVAAITFSGGSTYYADSVKGRFTISRDNAKNTVYLQMISLKPEVTAVYYCAAAEHDREFDSWGHGTQVTVSS”, for which the “polyreactivity (PSR sort gate)” value is given as “low polyreactivity”.
As to “QGQLVESGGGLVQAGGSLRLSCAASGFTFQYYAMGWSRQAPGKERELVAAISWSGGRTYYADSVKGRFTISRDNAKNTESLQMNSLKPEDTAVYYCAASYIVYPARYEDEGDYWGQGTQVTVSS”, the “polyreactivity (PSR sort gate)” value is “high polyreactivity”.
For “QGQLVESGGGLVQAGGSLRLSCAASGGIFLGNAMGWYRQAPGKERELVASITRGGDTSYADSVKGRFTISRDNAKNTVYLQMNCLKPEDTAVYYCNADYYSVVEYDYWGQGTQLTVSS”, the “polyreactivity (PSR sort gate)” value is listed as “low polyreactivity”.
The same measure for “QGQLVESGGGLVQAGGSLRLSCAASGITFGDNAMGWYRQAPGKERELVAAISSGGSTDYADSVKGRFTISRDNAKNTVYLQMNSLKPEDTAVYYCAFDWVSVPEYDYWGQGTQVTVSS”: “low polyreactivity”; for “QGQLVESGGGLVQAGGSLRLSCAASGITFPGYAMGWSRQAPGKERELVAVIRKSGTSTYYADSVKGRFTISRDNEKNTVYLQMNSLKPEDTAVYYCADGGPSTVDVYWGQGTQVTVSS”: “low polyreactivity”.
In the case of “QGQLVESGGGLVQAGGSLRLSCAASGITFPYYAMGWYRQAPGKERELVADITSGGSTNYADSVKGRFTISRDNAKNTVYLQMNSLKPDDTAVYYCAADWYVIYDYWGQGTQVTVSS” it was “low polyreactivity”.
In the case of “QGQLVESGGGLVQAGGSLRLSCAASGRIFKYNAMGWYRQAPGKEMELVAVITSGGSTYYADSVKGRFTISRDNAKNTVYLQMNSLKPEDTAVYYCAKKYYIVHKFDYWGQGTQVTVSS” it was “low polyreactivity”; in that of “QGQLVESGGGLVQAGGSLRLSCAASGRIFPYAMGWYRQAPGKERELVAAISRIGGITYYADSVKGRFTISRDNAKNTVYLQMNSLKPEDTAVYYCNARFHPYRWTFDYWGQGTQVTVSS”, “high polyreactivity”; in that of “QGQLVESGGGLVQAGGSLRLSCAASGRIFQMYTMGWYRQAPGKERELDAAITSGTSTSYADSVKGRFTISRDNAKNPFYLQMNSLKPEDTAVYYCNKGSVCYSSVFVPYESDYWGQGTQVTVSS”, “low polyreactivity”.
On to “QGQLVESGGGLVQAGGSLRLSCAASGRIFYIYFMGWYRQAPGKEREFVAAISQSGGSTYYADSVKGRFTISRDNAKNTVYLQMNSLKPEDTAVYYCAADRINYQHGYGYWGHGTQVTVSS”, for which the “polyreactivity (PSR sort gate)” value is recorded as “low polyreactivity”.
In the case of “QGQLVESGGGLVQAGGSLRLSCAASGRTFQYYAMGWYRQATGKERELVAAITTVGSTKYADSVKGRFTISRDNAKNTVYLQMNSVKPEDTAVYYCAAGYRTRSGHRVPYSDYSWGQGTQVTVSS” it was “high polyreactivity”; in that of “QGQLVESGGGLVQAGGSLRLSCAASGRTFTINAMGWYRQATGKERELHAAISSDGNTNYADSVKGRFTISRDNAKNTVYLQMNSLKPEDTAVYYCAADWVRYSYRHGSYRVYYWGQGTQVTVSS”, “high polyreactivity”; in that of “QGQLVESGGGLVQAGGSLRLSCAASGRTFYRYAMGWYRQAPGNERELVASMNRGGSTYYADSVKGRFTFSRDNAKNTVYLQMNSLKPEDTAVYYCACYCYCYRGQGTQVTVSS”, “low polyreactivity”.
With “QGQLVESGGGLVQAGGSLRLSCAASGRTLVIKVMGWYRKAPGKERELVAAISFRSGNTYYADSVKGRFTISRDNAKITVYLQMNSLKPEDTAVYDCAAYTYRTSTTSSYYNWGQGTQVTVSS”, the “polyreactivity (PSR sort gate)” value is given as “high polyreactivity”.
In the case of “QGQLVESGGGLVQAGGSLRLSCAASGSIFDLNAMGWYRQAPGKERELVAAISTGGGTYYADSVKGRFTISRDTAKNTVYLQMNRLKPEDTAVYYCNRVTRWTYNYWGQGTQVTVSS”, the “polyreactivity (PSR sort gate)” value is “high polyreactivity”.
Consider “QGQLVESGGGLVQAGGSLRLSCAASGSIFGPYVMGWYRPAPGTERELVASITSSGGSTYYADSVKGRFTISRDNAKNTVYLQMNSLKPEDTAVYYCAATRSFSGGYGYVSYDYWGQGTQVTVSS”, for which the “polyreactivity (PSR sort gate)” value is “high polyreactivity”.
In the case of “QGQLVESGGGLVQAGGSLRLSCAASGSIFRSYAMGWYRQAPGKERELVASISRRGGSTYYADSVKGRFTISRDNAKNTVYLQMNSLKPEDTAVYYCAAVRYNSRVSTSPSEMYYWGQGTQVTVSS” it was “low polyreactivity”; in that of “QGQLVESGGGLVQAGGSLRLSCAASGSISGNYAMAWYRQAPGKERELVASIRYTGARTYYADSVKWRFTISRDNAKNTVYLQMNSLKPEDTAVYYCAADVKRDRVWGGDYWGQGTQVTVSS”, “low polyreactivity”.
The same measure for “QGQLVESGGGLVQAGGSLRLSCAASGSISTYYAMGWYRQAPGKERELVAAISSSGVRTYYADSVKGRFTIARDNAKNTVYLQMNSLKREDTAVSYCAAEVYYLYFYIMDYWGQGTQVTVSS”: “high polyreactivity”; for “QGQLVESGGGLVQAGGSLRLSCAASGSSLPYYAMGSYRQAPGKERELVATITDGTDTYYADSVKARFTISRDNAKNTVFLQMNSLKTDDSAVYYCNAYGYVYFLHEDYWGQGTQVTVSS”: “low polyreactivity”; for “QGQLVESGGGLVQAGGSLRLSCAASGSTFLTNTMGWYRHAPGKERELVAAITLRGGRTYYADSVKGRFTISRDNAKNTVYVQMNSLKPEDTAVYYCTARNYYYTSDRDYWGQGTQVTVSS”: “low polyreactivity”.
In the case of “QGQLVESGGGLVQAGGSLRLSCAASGSTLVYNDMGWYRQAPGKEREFVAAISISGTSTYADSVKGRFTISRDNAKNTVYLQMNSLKPEDTAVYWGQGTQVTVSS” it was “low polyreactivity”; in that of “QGQLVESGGGLVQAGGSLRLSCAASGTTFTKYAMGWYRPAPGKERELVATISQSSGRTYYADSVKRRFTISRDNAKNTVYLQMNTLKPEDTAVYYCAARYGYAVYYYGTPVRRYYYWGQGTQVTVSS”, “high polyreactivity”; in that of “QGQLVESGGGLVQAGGSLRLSCAASVRTFYKYAMGWYRQAPGKERELVATITSGGSTNYADSVKGRFTISRDNAKNTVYLQMNSLKPEDTAVYYCAARGHIYKIRDPYWTHDYWGQGTQVTVSS”, “low polyreactivity”.
For the sequence “QGQLVESGGGLVQAGGSLRLTCPPSGFTFRTNAMGWYRQAPGKERELVAAISYSGGSTYYADSVKGRFTISRDNAKNTVYFQMNSLKPEDTAVSYCAARAAGSQHDYWGQGSQVTVSS”, the “polyreactivity (PSR sort gate)” value was “high polyreactivity”.
For “QGQLVESGGGLVQAGGSLSLSCAASGSIFQGYAMGWYRQAPGNEWEFVAAISESDGSTYYADSVKGRCTISRDNAKNTVYLQMNSLKPEDTAVYYCAADKQAYVTDDYWGQGTQVTVSS”, the “polyreactivity (PSR sort gate)” value was “high polyreactivity”.
In the case of “QGQLVESGGGLVQAGVSLRLSCAASGSIFGFYGMGWYRQAPGKERELVAAISYRGGNTYYADSVKGRFTSSRDNAKNTVFLQKNSLKPEDTAVYYCNSMWKHGAYRGAYGYWGQGTQVTVSS” it was “high polyreactivity”; in that of “QGQLVESGGGVVQAGGSLRLSCAASGRIFYRNAMGWYRQAPGKVRELVAAINWSGGSTYYADSVKGRFTISRDNAKNTVYLQMNSLKPEDTAVYYCAARFVRYPSKYDYWGQGTQVTVSS”, “high polyreactivity”; in that of “QGQLVESWGGLVQAGGSHRLSCAASGRIFVYYAMGWYRQAPGKERELVAGMTGGGNTYYAYSVKVLFTISRDNAKNTGYLQKNSLKPEDTAVYYCAADPIRYRSRHKYGYWGQGTQVTVSS”, “low polyreactivity”.
For “QGQLVVSGGGLVQAGGSLRLSCAASGSILTRNAMGWYRQAPGKEMELVAAITGSGGRTYYADSVKGRFTISRDNAKKTFYLQMKSLKPEDTAVYYCATRYGREDYWGQGTQVNVSS”, the “polyreactivity (PSR sort gate)” value is recorded as “high polyreactivity”.
In the case of “QGQRVESGGGLVQAGASLRLSCAASGFIFWEYAMGWSRQAPGKERELVAAISDSGGDTYYADSVKGRFTISRDNAKNTVYLEMHSLKPEDSAVYFCAADVELWVFRGQQYDYWGQGTQVTVSS” it was “low polyreactivity”; in that of “QGQRVESGGGLVQAGGSLRISCAASGRTVGRYVMGWYRQEPGKERELVARIRGSTTSTYYADSVKGRFTISRDNAKNTVYLQMNSLKAEDTAVYYCAASYSPFASSYSYDYWGQGTQVTVSS”, “high polyreactivity”.
Turning to “QGQRVESGGGLVQAGGSLRLTCAPSGRTFTGYAMGWYRQATGKARELVAGINWSTGSTYYADSVKGRFTISRDNAKNTVYLQMNSLKPEDTAVYYCAAGYYYYGNGRIVQYEYWGQGTQVTVSS”, the “polyreactivity (PSR sort gate)” value is given as “high polyreactivity”.
Regarding “QHQHVESGGGLDQAGGSLRLSCAASGSTFQIYAMGWYRQAPGKERELVAAIDFSGGSTYYADSVKGRFTISRDNAKYTVYLQMNSLKQEDTAVYYCAADLALYSHFGEYEYWGQGTQVTVSS”, the “polyreactivity (PSR sort gate)” value was “low polyreactivity”.
Regarding “QHQLVESGGGLVQAGGSLRLSCAASGRTFHRNAKGWYRQAPWQERELVAAITGSGGSTYYADSVKGRFTISRDNAKNTVYLQMYSLKPEDTAVYYCATYSYPERTGGQRTHYYWGQGTQVTVSS”, the “polyreactivity (PSR sort gate)” value is recorded as “high polyreactivity”.
The same measure for “QIQLVESGGGFVQAGGSLRLSCAASGFTFHYYAMGWYSQAPGKERELGAAISWSSGRTYYADSVKGRFTISRDNAQNTVYLQMNSLKPEDTAVYSCAASSYNRGDYWGQGTQVTVSS”: “low polyreactivity”.
